Experimental data as given in the DeepSol protein solubility set.

Assay: soluble on expression in E. coli; label from the status in PepcDB or PDB records

Sequence	soluble on expression in E. coli
MICDNCKTREAVILQPHTGRKLCKECFIEDIRKRVEMEARKQEIVNSNKILLAVSGGKDSLVLADTLSQFIHPSRLIAFNINEGIKGYNRNEYVKKLEEYLKDLGIELIKSGFKEEVGFSLDEMLEASLKKKLNVSACTFCGGFRRKLINEAGIKVAADYVATGHNLDDEVQTIVINLIRGDLLRLIRFGDKPLMVSSKFVMRVKPLRKIYEWETTMYAHLKGFEFQETECPYISQKPTLRAKVRDLLYKLEEKKPGTLLRILEQFDEISEKIKKEYRLTNELPNCVICGEPTTPGRMICKNCELLIRSGLMPQEYQKYLPIS	not soluble
MTTLQEAYLAFKSAQIIDLTHQINENSPHFPLLPALEKKDLFTLKDGFHIQQFTVVGQYGTHIDAPIHFVEGGAWLDELPLEDLLLPMYVIDKSQAVADNPNYELSKADILAFEEKYGQIEEGAFVAFRSDWSKRWPSQEEFRNLDTAGAQQTPGWSHEALEFLIHERQVKAVGHETFDTDSGQAVAENGKLVEEYYLLDQGIYQLEVLNNLNLLPATGSFISIAYPHWEKATGSPVRAIAYIAQELEHHHHHH	soluble
MNHKVHHHHHHIEGRHMAVVKEVLEIAEKIKNMEIRGAGKIARSAAYALQLQAEKSKATNVDEFWKEMKQAAKILFETRPTAVSLPNALRYVMHRGKIAYSSGADLEQLRFVIINAAKEFIHNSEKALERIGEFGAKRIEDGDVIMTHCHSKAAISVMKTAWEQGKDIKVIVTETRPKWQGKITAKELASYGIPVIYVVDSAARHYMKMTDKVVMGADSITVNGAVINKIGTALIALTAKEHRVWTMIAAETYKFHPETMLGQLVEIEMRDPTEVIPEDELKTWPKNIEVWNPAFDVTPPEYVDVIITERGIIPPYAAIDILREEFGWALKYTEPWED	soluble
MGSDKIHHHHHHMEEEMLKCKRLFVSDMDGTFYLGNTLLPGSLDFAMAVHRLGARLVFLTNNSSRTPEEYIRKLEKMGVDRKLFQVYTSGEATISFLKRDFAKKKAFLLSTPSVREMFEKGGVMLDDFDPEVLVLAFDTSITYEKIRRAALLIRQGIPYVASHPDINCPTEEGPIPDVGSLISLFETSTGRRPDHIIGKPDPAILKMVMEDFDCSQEETVVIGDRLYTDIECGLKAEVDTFLVLSGETTRDMIPDRHSYKVVENVGSLAKKIRDHDTV	not soluble
YGQYLSIRKTETLLRNELSKLTPDTVEELSSKLPENSRSLVITYMRQVLDARDTPAQVQRLLANFEIAADKDLAISKTLTK	not soluble
GSHMAAAKQDVKVFSEDGTSKVVEILADMTARDLCQLLVYKSHSVDDNSWTLVEHHPHLGLERCLEDHELVVQVESTMASESKFLFRKNYAKYEFFKNPMNFFPEQMVTWSQQSNGSQTQLLQNFLNSSSSPEIQGFLHVKELGKKSWKKLYVCLRRSGLYCSTKGTSAAPRHLQLLADLEDSNIFSLIAGRKQYNAPTDHGLCIKPNKVRNETKELRLLCAEDEQTRTSWMTAFRLLKYGMLLYQNYRIPQQRKA	soluble
MGSDKIHHHHHHMAHENVIEMRDITKVFGGFVANDKINLHLRKGEIHALLGENGAGKSTLMNMLAGLLEPTSGEIAVNGQVVNLDSPSKAASLGIGMVHQHFMLVEAFTVAENIILGSELTKNGVLDIAGASKEIKALSERYGLAVDPSAKVADISVGAQQRVEILKTLYRGADILIFDEPTAVLTPSEIDELMAIMKNLVKEGKSIILITHKLDEIRAVSDRVTVIRRGKSIETVEIAGATNADLAEMMVGRSVSFKTEKQASKPKEVVLSIKDLVVNENRGVPAVKNLSLDVRAGEIVGIAGIDGNGQSELIQAITGLRKVESGSIELKGDSIVGLHPRQITELSVGHVPEDRHRDGLILEMMISENIALQTYYKEPHSKNGILNYSNITSYAKKLMEEFDVRAASELVPAAALSGGNQQKAIIAREIDRDPDLLIVSQPTRGLDVGAIEYIHKRLIEERDNGKAVLVVSFELDEILNVSDRIAVIHDGKIQGIVSPETTNKQELGVLMAGGNLGKEKSDV	not soluble
MSLCGIAGTLNSSCFSSKKLLAALAHRGPSGHGEFSHQGVNLFHARLSIQDLSPAGAQPMHRHHLSIVFNGEIYNHLELRAKVADYPFSTRSDTETILALFERFGERSLEWMDGMFALAILDQRTHKLFLARDRMGKKPLFYYQEGEEFLFASELNALLTLKPLQIDHAKLSAFLRCGFFPHDGAPYQGVQSLPQGSYAFIDLHHPRPLSPQRYFDLLSLYQAPKIEGFEASKEAVELALKESVKNRLESSDLEVGSFLSGGIDSSLITALASFFTPKLKTFTVAFEGAYDESSLAELVAKRYKTDHTTLHLNPSKLKEEVKGILACYGRPFMDSSAIPSYYVSQEAKKHLTVILNGDGADELFGGYRRYVPMSHGWLKLARPLSLLLPLLPLPKEKKSLYNYLHRLLAMSRKRGLDFYLSATIDSFEDAYAFSPNPHTQTLDQEITQILEDSSLSSLSKMLYLDSQNLLLSDLLPKMDIATMAHSLEGRSPFLGKSLLEVAPRIKDEYKIFGKSTKFILRELAKKYLPHALLEQPKRGFEVPLRAWVEGELKELIFDSLSKNCLSRELIESRFVDALLDKPQDFAPEKRAKMLWSLFSLEVWHEHYQKACEEGHHHHHH	soluble
FCYSFCKNYANEIKKIITDFIEHNKINFQNEIENAFITSVIIVHTGIDAFSISLLI	not soluble
GPGSMKATIITPGETYRILAPASSLHKYLTDSYWCSAMEEVCEGKLDGVAVRYTGQQLVLLQFRPKQLSPAGYRYPISMSIPVEYLVPISTEESTEDHNICKHDTNYGTKESTFLGSGFAPLCVVCGRYNVPGMVLRHHGYKCPECVGHKSTRKLRMEGARRR	not soluble
GPGSMVIKKDVPFKYTLHQGLCERDPVLSTPLIITAGVDGNELQYRLDMQVPSHSAIEGMEVTNVEFLFTSSKCNAGKSNQHLSKCSMLVYLYMQLLDGVGRPTSPPFPISCCNTHTGKGIFSCVKLPLQVNQQCRFYLVRRSCTDSASQSAMELKGVRFTSKLYLLYRSPLNSAKVRSQMDVLTGGDLKFTADTEVMTSTGAKRSREELERFGSENSDRKGKKAKRERETATTMDRASDDEPPNLIYAFVSGGDNES	soluble
EKGLEIAQERKARDEGWGDSIATMEMILKNAQGESSTRLMRLKSLEVEGDGDKGLTIFDQPRDVTGTAFLNHSHTIGADDQWLYLPALKRVKRISSRNKSGPFMGSEFAYEDLSSFEIEKYRFNHLKDEKFNGQDVFVLEQIPTDKNSGYTKQVVWLDKAHYRPLKVEFYDRKGALLKTLTFANYKQYLDKYWRAHTMAMTNHQTGKSTELNTSDLRFQTGLEENDFNKNVLKR	soluble
MAEITFKGGPVTLVGQEVKVGDQAPDFTVLTNSLEEKSLADMKGKVTIISVIPSIDTGVCDAQTRRFNEEAAKLGDVNVYTISADLPFAQARWCGANGIDKVETLSDHRDMSFGEAFGVYIKELRLLARSVFVLDENGKVVYAEYVSEATNHPNYEKPIEAAKALVK	soluble
MGSDKIHHHHHHMKVKAPGRINIIGEHTDYNDGYVLPFAVNRYVFLSIEGSERFIFHSENVNETVEMEKIEKLNKWTDYISGVIASFEKRGYRVSPVKISVSSNLPIGAGLSSSAALEVATAYAISEYFGFNVPKLELVKIAREAEVEFVGVRCGIMDQFTAVFGKKDHAIFLDTMTLEYEYVPLKLEGYEINLVDSNVKHELSSSEYNRRRQECEEVLKTLEKKSFREVTKEDLERLSGTLRKRAQHVLEENERVLKSVQALKEGDFETLGKLLFSSHESLRDLYEVSCEETDFIVDYLRGKEGILGARMVGGGFGGGVIVLSKKGAFGKIKEELVESYRKRFGIDLIFHEIESSDGVQKI	not soluble
MAAASFAPFQDLANLLIPYTHAEKIDGSHDVSHLLRVWKNVCAIRDREGGDARVLMAATLLHDCVSVEKDSPFRAGASRLAAARARELLGDMGWDEESIASVAHAVEAHSFSAAITPVSLEAKILQDADRLDSLGMIGVARTFYVSGRMGKYLYEPNDPHASQRPYDDKRFAVDHFHTKLLHLADGFQTRTGTQMAKVRHDRLKRFLDELMEEIDASRPLEHHHHHH	not soluble
MGRQIPPDPVFGDVLVAKLINRVMWDGKKTIAQKIVYGAFDIIREKTKKDPLEVFRQAVENVKPVLEVRPRRVGGATYQVPIEVQEPRRTSLALRWIVEAARAKKGRPMKEKLAEEIIAAYNNTGTAIKKKEDTHRMAEANRAFAHYRW	soluble
MGSDKIHHHHHHMLTRQRPLHGIGTTQAAVLKHLRRNGIASRAELAELCGVTQAAVSMMTRDLIARGIVIQGARRQSQRGAPHIDLMLAGNIGYALGVHANSYSLTVTLLDFCGNRIGEQQLEGPYDRFSDIQTAIKSLRTDLLTSNGIDEGLLIGAAVAMPTRFRHGTAFLDLAEEVVSWAGSDLASTLRETLDCPVMIENDANAAAMGELALGNASGHDNFAYLYLSEGIGSGIIIGKELYRGNLGNAGEVGALRARGLSRPSFDDLAAWCKEHQGHIPKGRSSDQWTAYLQANPTVLDAWLRRAGPELATLAFMVTAVLAPSAIYIGGTLPRLVREKLAPWLDFSTSNPFDGARVIQPDILIPQISAVDAVAFGAAAMILHSVPGNPGL	not soluble
MATLFIADLHLQTEEPAITAGFLRFLQGEARQADALYILGDLFEAWIGDDDPNPLHQQIASAIKAVVDAGVPCYFIHGNRDFLVGQRFARQSGMILLAEEERLDLYGREVLIMHGDTLCTDDQGYLAFRAKVHTPWIQRLFLALPLFIRHRIAARMRADSKAANSSKSMEIMDVNPQAVVDAMERHHVQWLIHGHTHRPAVHELQANGQPAWRVVLGAWHSEGSMVKVTPDDVELIHFPF	not soluble
MMEMRVGIVGGGLAGLTAAIALAEKGFDVSIIGPRSTDSNSYLAQAGIALPLLEGDSIRIHVLDTIKAGKYINDEEIVWNVISKSSEAHDFLTSHGVTFTGNELEGGHSYPRIFTIKSETGKHIIPILEKHARELDVNFIRGFVEEIGINNGKLAGVFLQGELLKFDAVVIAAGGFSGLYRFTAGVKNNIGLLIGDVALKGVPLRDMEFVQFHPTGFIGKRTYLITEAVRGAGAKLVTGDGERFVNELETRDIVARAIYMKMLEGKGVFLDARGIENFKDRFPYIYSVLRGEGINPEKDLIPITPVAHYTIGGISVDAFYRTRIKGLYAIGESACNGFHGANRLASNSLLECVVSGLEVARTISREKPKREVNDAPYSFNELGDVDSIREVLWNHAGIVRDEWSLREGLRKLKEIEVDERLKLVAKAVIISALKREESRGAHYRKDYPFMRKEFEHSSFFYPNV	soluble
MPRTVTHNPDSPNNDDVLAASEKWDACKPPYTSAHMKICVAAAKIILAASGVARCSKYEKENYLRIDFSKAGKVTFYAEFPKKMGLKGKKLGEWPELVIQLAREKALGMADGGLRAESVHAALEMYRDDPKPK	not soluble
GMEVIESKWYKKDGASSASIDDVEKLLNTTLPKQYKSFLLWSNGGEGKLGDNYIYIWAIEDVIAYNHDYGIQKYLQKEYWAFGMDGDIGYILHLSDNSIYRVDLGDLDITSIKYIAPSFDDFLGKAIYLNFNKLQNVANNNLTT	soluble
MGSDKIHHHHHHMSIIYRRRSIRKYQKKDVPDELVKEIIRAAMHAPSACNQQPWHFVVIRNEETKKKIAEIHPHAQMSAEAPVVILVCGDPTLEKCKGYWIQDCSAAVENLLLRATELGLGAVWCGVYPREERVKAFRELLGIPEHVVPFALVPVGYPAEHPVQVDRFKPERIHYEKW	not soluble
